First the molecules themselves.
B1: full-length Rps3 (ribosomal protein S3), SAXS sample (natural protein, S. cerevisiae, UniProt P05750 1-240, looked up)
chain: MVALISKKRKLVADGVFYAELNEFFTRELAEEGYSGVEVRVTPTKTEVIIRATRTQDVLGENGRRINELTLLVQKRFKYAPGTIVLYAERVQDRGLSAVAQAESMKFKLLNGLAIRRAAYGVVRYVMESGAKGCEVVVSGKLRAARAKAMKFADGFLIHSGQPVNDFIDTATRHVLMRQGVLGIKVKIMRDPAKSRTGPKALPDAVTIIEPKEEEPILAPSVKDYRPAEETEAQAEPVEA
notes: Rps3, S. cerevisiae, full-length; modelled as Rps3 (1-249 including tag); How the SAXS samples were produced is not described; the methods describe His6-tagged proteins from E. coli BL21 (DE3) Rosetta Star in general; also called r-protein S3
B2: Ltv1-Flag (natural protein, S. cerevisiae, UniProt P34078 1-463, looked up)
chain: MSKKFSSKNSQRYVVVHRPHDDPSFYDTDASAHVLVPVSNPNKTSPEADLRKKDVSSTKPKGRRAHVGEAALYGINFDDSEYDYTQHLKPIGLDPENSIFIASKGNEQKVEKKNIEDLFIEPKYRRDEIEKDDALPVFQRGMAKPEYLLHQQDTTDEIRGFKPDMNPALREVLEALEDEAYVVNDDVVVEDISKKTQLQGDNYGEEEKEDDIFAQLLGSGEAKDEDEFEDEFDEWDIDNVENFEDENYVKEMAQFDNIENLEDLENIDYQADVRRFQKDNSILEKHNSDDEFSNAGLDSVNPSEEEDVLGELPSIQDKSKTGKKKRKSRQKKGAMSDVSGFSMSSSAIARTETMTVLDDQYDQIINGYENYEEELEEDEEQNYQPFDMSAERSDFESMLDDFLDNYELESGGRKLAKKDKEIERLKEAADEVSKGKLSQRRNRERQEKKKLEKVTNTLSSLKF
notes: Ltv1, S. cerevisiae; expressed from pET15b; source: E. coli, purified (anti-Flag agarose); also co-expressed in E. coli with His6-Rps20 (in lysate) and purified in complex with His6-Rps3; not shown: Flag, C-terminal, kept
B3: Yar1 of the purified His6-Rps3/Yar1 complex (natural protein, S. cerevisiae, UniProt P46683 1-200, looked up)
chain: MGLHSEPLDQEDQDTIILDARAGDLDSLKDIFTTLVSPELLSTCKESESDSTALHMAAANGHIETVRYILETVSRANSAEDLKAFVNEVNKTGNTALHWASLNGKLDVVKLLCDEYEADPFIRNKFGHDAIFEAENSGKEEVETYFLKKYDVEPEDDEEDTQTEGKNSVQITKGTEIEQVTKEATEALREETEKLNINKD
notes: Yar1, S. cerevisiae; No tag is named for Yar1 in this complex; source: E. coli BL21 (DE3) Rosetta Star, purified in complex with His6-Rps3 (Ni-NTA agarose)
B4: full-length Yar1 (Yar1-FL), SAXS sample (natural protein, S. cerevisiae, UniProt P46683 1-200, looked up)
chain: B3 chain
notes: Yar1, ankyrin-repeat protein, S. cerevisiae, full-length; modelled as Yar1 (1-214 including tag; 14 N-terminal residues from the His-tag); not shown: His-tag, N-terminal, kept
B5: Flag-Yar1 (natural protein, S. cerevisiae, UniProt P46683 1-200, looked up)
chain: B3 chain
notes: Yar1, S. cerevisiae; expressed from pETDuet-1; source: E. coli, purified (anti-Flag agarose); not shown: Flag, N-terminal, kept
B6: Rps3 N-domain (1-95) (domain or fragment, S. cerevisiae, UniProt P05750 1-95, looked up)
chain: MVALISKKRKLVADGVFYAELNEFFTRELAEEGYSGVEVRVTPTKTEVIIRATRTQDVLGENGRRINELTLLVQKRFKYAPGTIVLYAERVQDRG
notes: Rps3, S. cerevisiae, N-domain, residues 1-95

Data set [1] deals with the molecule itself. As to the kind of experiment: SAXS; small-angle X-ray scattering in solution, direct injection or size exclusion separation before data collection; Tris-HCl 50 mM and NaCl 200 mM, pH 7.5; Rps3 constructs measured in complex with Yar1 constructs. For orientation: SEC sorts molecules by how far they enter the pores of the column.
Data set [2] concerns the target T1, Enp1-Flag-TEV-ProteinA (Enp1-FPA) (S. cerevisiae, UniProt P38333 1-483).
T1 construct: Enp1, S. cerevisiae; A TEV site lies between Flag and Protein A; expressed from pET15b; source: E. coli, purified (anti-Flag agarose); not shown: Flag, C-terminal, kept; Protein A, C-terminal, kept
T1 sequence (looked up): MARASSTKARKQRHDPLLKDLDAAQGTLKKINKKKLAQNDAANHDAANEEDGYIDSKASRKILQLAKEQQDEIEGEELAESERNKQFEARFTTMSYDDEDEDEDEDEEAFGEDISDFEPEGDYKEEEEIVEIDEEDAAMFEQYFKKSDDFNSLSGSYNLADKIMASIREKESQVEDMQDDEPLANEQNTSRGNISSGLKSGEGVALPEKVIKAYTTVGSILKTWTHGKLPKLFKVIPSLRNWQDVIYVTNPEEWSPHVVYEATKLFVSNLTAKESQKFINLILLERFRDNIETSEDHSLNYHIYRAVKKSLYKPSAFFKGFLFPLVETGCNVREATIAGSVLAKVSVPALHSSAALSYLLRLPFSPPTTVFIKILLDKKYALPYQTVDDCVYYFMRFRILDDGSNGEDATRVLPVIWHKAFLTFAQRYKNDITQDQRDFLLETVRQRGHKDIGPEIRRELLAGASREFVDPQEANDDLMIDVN
Briefly: pull-down; in vitro competition: purified His6-Rps3/Yar1 complex immobilized on Ni-NTA agarose, incubated with buffer or an ∼6-fold molar excess (over Rps3) of purified Ltv1-Flag and/or Enp1-FPA; supernatants and eluates by Coomassie or western blot. The conditions noted are these: both partners purified.

In data set [3] the target is T2, His6-Rps3 (S. cerevisiae, UniProt P05750 1-240).
T2 construct: Rps3, S. cerevisiae; expressed from pETDuet-1; source: E. coli BL21 (DE3) Rosetta Star, purified (Ni-NTA agarose) in complex with Yar1 or with Ltv1-Flag; not shown: His6, N-terminal, kept
T2 sequence (looked up): B1 chain
The data set is described as above. The settings on record: both partners purified.

The target in data set [4] is B1. As to the kind of experiment: SAXS; small-angle X-ray scattering in solution, direct injection or size exclusion separation before data collection; Tris-HCl 50 mM and NaCl 200 mM, pH 7.5; Rps3 constructs measured in complex with Yar1 constructs. The settings on record: both partners purified.
Data set [5] concerns the target T2, His6-Rps3. Briefly: pull-down; in vitro competition: purified His6-Rps3/Ltv1-Flag complex immobilized on Ni-NTA agarose, incubated with buffer or an ∼1.5-fold or 6-fold molar excess of purified Flag-Yar1; eluates and supernatants by Coomassie or western blot. The conditions noted are these: both partners purified.
For a further data set, the target named is T3, Yar1 core (8-153) (S. cerevisiae, UniProt P46683 8-153).
T3 construct: Yar1, S. cerevisiae, structural core lacking the N- and C-terminal extensions, residues 8-153; also called Yar1 structural core; Yar1(8-153)
T3 sequence (looked up): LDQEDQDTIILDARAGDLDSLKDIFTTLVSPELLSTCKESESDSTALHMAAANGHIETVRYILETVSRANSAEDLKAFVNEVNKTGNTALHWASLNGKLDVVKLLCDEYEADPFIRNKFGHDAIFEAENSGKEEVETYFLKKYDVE
Briefly: SAXS; small-angle X-ray scattering in solution, direct injection or size exclusion separation before data collection; Tris-HCl 50 mM and NaCl 200 mM, pH 7.5; Rps3 constructs measured in complex with Yar1 constructs. The conditions noted are these: both partners purified.

For data set [6], the target named is B4. Described as above. The settings on record: both partners purified.

With B1, the stoichiometry N (commonly the number of molecules, sites or subunits per partner or assembly) in data set [1] stood at 2.
For B2, the binding result in data set [2] is listed as “binds”.
For B3, the binding result in the data set with His6-Rps3 [3] is reported as “binds”.
Regarding B4, the binding result in data set [4] is on record as “binds”.
In the case of B5, the binding result with His6-Rps3 [5] is “binds”.
On to B6, for which the binding result (with Yar1 core (8-153); in data set [6]) was “binds” in each case.
